Data taken from article PMC8914513, “Inhibition of Protein Kinase CK2 Affects Thymidylate Synthesis Cycle Enzyme Level and Distribution in Human Cancer Cells” (Frontiers in Molecular Biosciences, 2022).

B1: dihydrofolate reductase (DHFR), tagless ligand in QCM-D (enzyme, UniProt P00374 1-187, looked up)
chain: MVGSLNCIVAVSQNMGIGKNGDLPWPPLRNEFRYFQRMTTTSSVEGKQNLVIMGKKTWFSIPEKNRPLKGRINLVLSRELKEPPQGAHFLSRSLDDALKLTEQPELANKVDMVWIVGGSSVYKEAMNHPGHLKLFVTRIMQDFESDTFFPEIDLEKYKLLPEYPGVLSDVQEEKGIKYKFEVYEKND
notes: dihydrofolate reductase (DHFR); source: recombinant, overexpressed and purified as described previously (Antosiewicz et al., 2015; Skierka et al., 2019); His tag removed with Thrombin CleanCleave Kit
B2: dihydrofolate reductase (DHFR), fluorescently labeled, as used in MST (enzyme, UniProt P00374 1-187, looked up)
chain: B1 chain
modifications: fluorescently labeled (dye and site not stated)
notes: dihydrofolate reductase (DHFR); also called labeled DHFR; source: recombinant, overexpressed and purified as described previously (Antosiewicz et al., 2015; Skierka et al., 2019)
B3: serine hydroxymethyltransferase, cytosolic (SHMT1), as used in MST (enzyme, UniProt P34896 1-483, looked up)
chain: MTMPVNGAHKDADLWSSHDKMLAQPLKDSDVEVYNIIKKESNRQRVGLELIASENFASRAVLEALGSCLNNKYSEGYPGQRYYGGTEFIDELETLCQKRALQAYKLDPQCWGVNVQPYSGSPANFAVYTALVEPHGRIMGLDLPDGGHLTHGFMTDKKKISATSIFFESMPYKVNPDTGYINYDQLEENARLFHPKLIIAGTSCYSRNLEYARLRKIADENGAYLMADMAHISGLVAAGVVPSPFEHCHVVTTTTHKTLRGCRAGMIFYRKGVKSVDPKTGKEILYNLESLINSAVFPGLQGGPHNHAIAGVAVALKQAMTLEFKVYQHQVVANCRALSEALTELGYKIVTGGSDNHLILVDLRSKGTDGGRAEKVLEACSIACNKNTCPGDRSALRPSGLRLGTPALTSRGLLEKDFQKVAHFIHRGIELTLQIQSDTGVRATLKEFKERLAGDKYQAAVQALREEVESFASLFPLPGLPDF
modifications: fluorescently labeled in the SHMT-TS titration only; unlabeled titrant in the other MST experiments
notes: cytosolic serine hydroxymethyltransferase (SHMT1); Same preparation as m1; source: recombinant, overexpressed, purified (Ni-NTA, dialysis)
B4: serine hydroxymethyltransferase, cytosolic (SHMT1), His-tagged, immobilised in QCM-D (enzyme, UniProt P34896 1-483, looked up)
chain: B3 chain
notes: cytosolic serine hydroxymethyltransferase (SHMT1); Purified and stored with 50 uM pyridoxal phosphate; Captured by its His tag on the QSX340 sensor; also called His-tagged SHMT; His-tagged SHMT1; source: recombinant, overexpressed, purified (Ni-NTA, dialysis)

Experiments:
Settings in all cases: both partners purified
[1] = biological target: B4; assay: QCM-D (quartz crystal microbalance with dissipation monitoring); two proteins: 5 uM His-tagged SHMT immobilised on His-tag capturing sensor QSX340; tagless ligand introduced (0.1-1.0 uM or 0.5-7.0 uM for TS, pTS or DHFR); 20 mM Tris-HCl pH 7.6, 100 mM (salt not given), 10 mM MgCl2, 0.05% Tween 20, 25 C, 200 ul/min; Langmuir isotherm fit
[2] = biological target: B3; assay: MST; two proteins in solution, Premium capillaries: labeled DHFR with SHMT 157 uM-4.79 nM; labeled SHMT with TS 62.0 uM-1.9 nM; labeled pTS with SHMT 157 uM-4.79 nM; Kd model fit
[3] = biological target: T1, labeled DHFR with a constant concentration of TS (9.0 uM), MST tri-complex assay ( | human, UniProt P00374 1-187; P04818 1-313, fluorescently labeled (dye and site not stated)); assay: MST; tri-complex: constant labeled DHFR and TS or pTS (9.0 uM), SHMT titrated 157 uM-4.79 nM; Kd model fit
T1 construct: dihydrofolate reductase (DHFR); human thymidylate synthase (TS); A mixture at constant concentrations, not a purified complex; also called DHFR/TS; source: purified recombinant proteins mixed: constant labeled DHFR and 9.0 uM TS
T1 sequence (P04818 whole entry, one chain of several): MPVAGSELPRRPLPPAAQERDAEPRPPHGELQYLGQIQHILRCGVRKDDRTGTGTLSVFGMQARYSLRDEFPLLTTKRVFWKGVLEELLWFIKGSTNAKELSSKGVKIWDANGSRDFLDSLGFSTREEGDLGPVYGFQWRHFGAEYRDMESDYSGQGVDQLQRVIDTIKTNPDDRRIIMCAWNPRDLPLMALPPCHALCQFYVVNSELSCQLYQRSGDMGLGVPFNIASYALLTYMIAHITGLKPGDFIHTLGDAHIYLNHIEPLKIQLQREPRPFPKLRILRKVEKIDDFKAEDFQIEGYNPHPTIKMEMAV

[4] = biological target: T2, labeled DHFR with a constant concentration of pTS (9.0 uM), MST tri-complex assay ( | human, UniProt P00374 1-187); P04818 1-313, fluorescently labeled (dye and site not stated) | phosphorylated in vitro by CK2alpha; residue not stated for this preparation (the introduction names serine 124 as the site of CK2-mediated …); assay: as above
T2 construct: dihydrofolate reductase (DHFR); human thymidylate synthase (TS); A mixture at constant concentrations, not a purified complex; also called DHFR/pTS; source: purified recombinant proteins mixed: constant labeled DHFR and 9.0 uM pTS
T2 sequence (P04818 whole entry, one chain of several): as above

[5] = biological target: T3, mixture of DHFR and pTS introduced together in the three-protein QCM-D assay ( | human, UniProt P00374 1-187; P04818 1-313, phosphorylated in vitro by CK2alpha; residue not stated for this preparation (the introduction names serine 124 as the site of CK2-mediated phosphorylation of human TS)); assay: QCM-D (quartz crystal microbalance with dissipation monitoring); three proteins: 5 uM His-tagged SHMT1 immobilised on the sensor; mixture of fixed pTS (1.0 uM) and DHFR 0.25-2.0 uM introduced; 20 mM Tris-HCl pH 7.6, 100 mM (salt not given), 10 mM MgCl2, 0.05% Tween 20, 25 C, 200 ul/min; Langmuir isotherm fit
T3 construct: dihydrofolate reductase (DHFR); human thymidylate synthase (TS); A mixture, not a purified preformed complex; only the DHFR concentration was varied; also called DHFR/pTS; fixed pTS and variable DHFR; source: purified recombinant proteins mixed: pTS fixed at 1.0 uM, DHFR 0.25-2.0 uM
T3 sequence (P04818 whole entry, one chain of several): as above

Binder: B1
Kd [1]: 12.1 ± 7.86 µM

Binder: B2
Kd [2]: 12.6 ± 0.66 µM

Binder: B3
Kd [3]: 5.04 ± 0.5 µM | Kd [4]: 0.32 ± 0.05 µM

Binder: B4
Kd [5]: 0.28 ± 0.23 µM
